Numbering of substitutions follows the chain as printed. Where two headings read alike, the source gives them in different places.
How the values were obtained:
[1] = target: T1, biotinylated hOX40L (R&D Systems, biotinylated in house) (human, UniProt P23510 51-183, biotinylated with Sulfo-NHS-LC-Biotin, sites not stated); assay: hOX40L/hOX40 AlphaScreen, native sample
T1 construct: same bought protein as m10, biotinylated; also called biotinylated OX40L
T1 sequence: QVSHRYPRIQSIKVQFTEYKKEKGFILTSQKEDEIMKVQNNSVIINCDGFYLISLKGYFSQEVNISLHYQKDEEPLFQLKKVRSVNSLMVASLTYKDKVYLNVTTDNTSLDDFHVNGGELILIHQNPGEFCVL
Experimental: (§1) Next, streptavidin donor beads were added and incubated for an additional 1 hour. Fluorescence was measured by reading plates on the EnVision Multilabel Plate Reader using an excitation wavelength of 680 nm and an emission wavelength of 520 nm.
(§2) In the TSA assay, Nanobodies were diluted to a concentration of 0.2 mg/ml and melting temperature (Tm) was determined at different pH by stepwise increase in temperature in presence of Sypro Orange, a dye that binds to […] residues that become exposed upon unfolding of the protein, using the Lightcycler (Roche) for detection. […] In SEC analysis, the Nanobodies were analyzed on a Phenomenex matrix to allow detection of multimers, aggregates or ‘stickyness’.

[2] = target: T1, biotinylated hOX40L (R&D Systems, …); assay: hOX40L/hOX40 AlphaScreen, sample heated 1 min at Tm+10 C
Experimental: as §1, §2

[3] = target: T2, recombinant human OX40L (extracellular domain, R&D Systems) (human, UniProt P23510 51-183); assay: cell-based or functional assay
T2 sequence: T1 sequence

[4] = target: T1, biotinylated hOX40L (R&D Systems, …); assay: hOX40L/hOX40 AlphaScreen, assay 1, native
Experimental: Next, streptavidin donor beads were added and incubated for an additional 1 hour. Fluorescence was measured by reading plates on the EnVision Multilabel Plate Reader using an excitation wavelength of 680 nm and an emission wavelength of 520 nm. […]

[5] = target: T1, biotinylated hOX40L (R&D Systems, …); assay: hOX40L/hOX40 AlphaScreen, assay 3, native
Experimental: as §1, §2

[6] = target: T1, biotinylated hOX40L (R&D Systems, …); assay: hOX40L/hOX40 AlphaScreen, assay 3, heated at Tm+10 C
Experimental: as §1, §2

[7] = target: T1, biotinylated hOX40L (R&D Systems, …); assay: hOX40L/hOX40 AlphaScreen, assay 2, native
Experimental: as §1, §2

[8] = target: T1, biotinylated hOX40L (R&D Systems, …); assay: hOX40L/hOX40 AlphaScreen, assay 2, heated at Tm+10 C
Experimental: as §1, §2

[9] = target: T2, recombinant human OX40L (extracellular …); assay: cell-based or functional assay; remark: listed apart in the source
[10] = target: T3, full length human OX40L expressed on CHO cells (human, UniProt P23510 1-183); assay: cell-based or functional assay
T3 sequence: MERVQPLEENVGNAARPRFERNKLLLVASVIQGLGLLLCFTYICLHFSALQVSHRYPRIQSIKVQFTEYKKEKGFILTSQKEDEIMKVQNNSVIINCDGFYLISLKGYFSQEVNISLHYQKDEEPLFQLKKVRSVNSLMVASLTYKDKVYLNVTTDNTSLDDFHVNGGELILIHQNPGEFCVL

[11] = target: T3, full length human OX40L expressed on …; assay: cell-based or functional assay; remark: listed apart in the source
[12] = target: T3, full length human OX40L expressed on …; assay: cell-based or functional assay; remark: listed apart in the source
[13] = target: T1, biotinylated hOX40L (R&D Systems, …); assay: AlphaScreen, 120 pM biotinylated hOX40L + 0.2 nM hOX40/Fc
Experimental: as §1

[14] = target: T3, full length human OX40L expressed on …; assay: competition FACS, 3.1 nM hOX40/Fc on hOX40L expressing cells

B1: OX40L075 (VHH, not shown: small tags and cut ends)
VHH: EVQLVESGGGLVQPGGSLRLSCAASGRSFSTYIMGWFRQAPGKEREFVATISRSGITTRSADSVKGRFTISRDNSKNTVYLQMNSLRPEDTAVYYCAAGPYVEQTLGLYQTLGPWDYWGQGTLVTVSS
IC50 [1]: 0.31 nM | IC50 [2]: 1.9 nM

B2: OX40L030 (VHH, not shown: small tags and cut ends)
VHH: DVQLVESGGGLVQAGGSLRLSCAASRSIGRLDRMGWYRHRTGEPRELVATITGGSSINYGDFVKGRFTISIDNAKNTVYLQMNNLKPEDTAVYYCNFNKYVTSRDTWGQGTQVTVSS
IC50, T cell assay with rec. hOX40L [3]: 11 nM | IC50 [4]: 0.076 nM | IC50 [5]: 0.143 nM | IC50 [6]: 0.143 nM

B3: OX40L046 (VHH, not shown: small tags and cut ends)
VHH: B2 VHH with A14P, T41P, E43K, I71R, A74S, N84S, K86R, Q112L
IC50, T cell assay with rec. hOX40L [3]: 57 nM | IC50 [4]: 0.084 nM | IC50 [7]: 0.256 nM | IC50 [8]: 0.221 nM

B4: OX40L047 (VHH, not shown: small tags and cut ends)
VHH: B2 VHH with A14P, R40A, T41P, E43K, I71R, A74S, N84S, K86R, Q112L
IC50, T cell assay with rec. hOX40L [3]: 126 nM | IC50 [4]: 0.269 nM | IC50 [7]: 0.735 nM | IC50 [8]: 0.557 nM

B5: OX40L050 (VHH, not shown: small tags and cut ends)
VHH: B2 VHH with A14P, G60A, F62S, I71R, A74S, N84S, K86R, Q112L
IC50, T cell assay with rec. hOX40L [3]: 43 nM | IC50 [4]: 0.046 nM | IC50 [7]: 0.145 nM | IC50 [8]: 0.164 nM

B6: OX40L045 (VHH, not shown: small tags and cut ends)
VHH: B2 VHH with A14P, R40A, E43K, I71R, A74S, N84S, K86R, Q112L
IC50, T cell assay with rec. hOX40L [3]: 133 nM | IC50 [4]: 0.152 nM

B7: OX40L053 (VHH, not shown: small tags and cut ends)
VHH: B2 VHH with A14P, A74S, N84S, K86R, Q112L
IC50 [5]: 0.118 nM | IC50 [6]: 0.126 nM

B8: OX40L048 (VHH, not shown: small tags and cut ends)
VHH: B2 VHH with A14P, G60A, I71R, A74S, N84S, K86R, Q112L
IC50, T cell assay with rec. hOX40L [3]: 32 nM | IC50 [4]: 0.093 nM | IC50 [7]: 0.314 nM | IC50 [8]: 0.314 nM

B9: OX40L041 (VHH, not shown: small tags and cut ends)
VHH: B2 VHH with A14P, R40A, I71R, A74S, N84S, K86R, Q112L
IC50, T cell assay with rec. hOX40L [3]: 64 nM | IC50 [4]: 0.127 nM | IC50 [7]: 0.22 nM | IC50 [8]: 0.262 nM

B10: OX40L054 (VHH, not shown: small tags and cut ends)
VHH: B2 VHH with A14P, I71R, N84S, K86R, Q112L
IC50 [5]: 0.079 nM | IC50 [6]: 0.094 nM

B11: OX40L055 (VHH, not shown: small tags and cut ends)
VHH: B2 VHH with A14P, I71R, A74S, K86R, Q112L
IC50 [5]: 0.091 nM | IC50 [6]: 0.106 nM

B12: OX40L044 (VHH, not shown: small tags and cut ends)
VHH: B2 VHH with A14P, R40A, T41P, I71R, A74S, N84S, K86R, Q112L
IC50, T cell assay with rec. hOX40L [3]: 76 nM | IC50 [4]: 0.065 nM

B13: OX40L042 (VHH, not shown: small tags and cut ends)
VHH: B2 VHH with A14P, T41P, I71R, A74S, N84S, K86R, Q112L
IC50, T cell assay with rec. hOX40L [3]: 18 nM | IC50 [4]: 0.057 nM

B14: OX40L043 (VHH, not shown: small tags and cut ends)
VHH: B2 VHH with A14P, E43K, I71R, A74S, N84S, K86R, Q112L
IC50, T cell assay with rec. hOX40L [3]: 29 nM | IC50 [4]: 0.101 nM | IC50 [7]: 0.134 nM | IC50 [8]: 0.156 nM

B15: OX40L049 (VHH, not shown: small tags and cut ends)
VHH: B2 VHH with A14P, F62S, I71R, A74S, N84S, K86R, Q112L
IC50, T cell assay with rec. hOX40L [3]: 12 nM | IC50 [4]: 0.035 nM

B16: OX40L024 (VHH, not shown: small tags and cut ends)
VHH: EVQLVESGGGLVQPGGSLRLSCAASGRTFSSIYAKGWFRQAPGKEREFVAAISRSGRSTSYADSVKGRFTISRDNAKNTVYLQMNSLRPEDTAVYYCAAVGGATTVTASEWDYWGLGTLVTVSS
IC50, T cell assay with rec. hOX40L [9]: 1.54 nM | IC50 [1]: 0.07 nM | IC50 [2]: 0.07 nM

B17: OX40L027 (VHH, not shown: small tags and cut ends)
VHH: B16 VHH with A76S, L116Q
IC50, T cell assay with rec. hOX40L [9]: 1.43 nM | IC50 [1]: 0.07 nM | IC50 [2]: 0.07 nM

B18: OX40L026 (VHH, not shown: small tags and cut ends)
VHH: B16 VHH with L116Q
IC50, T cell assay with rec. hOX40L [9]: 2.46 nM | IC50 [1]: 0.05 nM | IC50 [2]: 0.06 nM

B19: OX40L039 (VHH, not shown: small tags and cut ends)
VHH: B16 VHH with E1D, A76S, L116Q
IC50, T cell assay with rec. hOX40L [9]: 1.6 nM | IC50 [1]: 0.05 nM | IC50 [2]: 0.05 nM

B20: OX40L028 (VHH, not shown: small tags and cut ends)
VHH: B16 VHH with E1D
IC50, T cell assay with rec. hOX40L [9]: 2.3 nM | IC50 [1]: 0.07 nM | IC50 [2]: 0.07 nM

B21: OX40L025 (VHH, not shown: small tags and cut ends)
VHH: B16 VHH with A76S
IC50, T cell assay with rec. hOX40L [9]: 1.15 nM | IC50 [1]: 0.06 nM | IC50 [2]: 0.05 nM

B22: benchmark OX40L blocking mAb (benchmark IgG) (antibody, V domains shown)
VH: EVQLLESGGGLVQPGGSLRLSCAASGFTFNSYAMSWVRQAPGKGLEWVSIISGSGGFTYYADSVKGRFTISRDNSRTTLYLQMNSLRAEDTAVYYCAKDRLVAPGTFDYWGQGALVTVSS
VL: DIQMTQSPSSLSASVGDRVTITCRASQGISSWLAWYQQKPEKAPKSLIYAASSLQSGVPSRFSGSGSGTDFTLTISSLQPEDFATYYCQQYNSYPYTFGQGTKLEIKR
IC50, T-cell activation assay, donor 1 [10]: 69.1 nM | IC50, T-cell activation assay, donor 2 [10]: 57.2 nM | IC50, T-cell activation assay, donor 3 [10]: 35.1 nM | IC50, T-cell activation assay, donor 4 [10]: 5.6 nM | IC50, T-cell activation assay, donor 10, +10% FBS [11]: 203 nM | IC50, T-cell activation assay, donor 10, +10% HS [11]: 161 nM | IC50, T-cell activation assay, donor 11, +10% FBS [11]: 61.2 nM | IC50, T-cell activation assay, donor 11, +10% HS [11]: 30.2 nM | IC50, T-cell activation assay, donor 12, +10% FBS [11]: 22.1 nM | IC50, T-cell activation assay, donor 12, +10% HS [11]: 42.9 nM | IC50, T-cell activation assay, donor 13, +10% FBS [11]: 84.4 nM | IC50, T-cell activation assay, donor 13, +10% HS [11]: 120 nM

B23: anti-OX40L benchmark Fab (Fab, V domains shown)
VH: B22 VH
VL: B22 VL
notes: papain digest of benchmark IgG; also called LC001 Fab
IC50, IL4 production, T-cell activation assay, donor 1 [12]: 80 nM | IC50, IL4 production, T-cell activation assay, donor 2 [12]: 131 nM | IC50, IL4 production, T-cell activation assay, donor 3 [12]: 58 nM | IC50, IL4 production, T-cell activation assay, donor 4 [12]: 85 nM | IC50, T-cell activation assay, donor 1 [10]: 80.2 nM | IC50, T-cell activation assay, donor 2 [10]: 131 nM | IC50, T-cell activation assay, donor 3 [10]: 57.6 nM | IC50, T-cell activation assay, donor 4 [10]: 85.2 nM | IC50 [13]: 1.97 nM | IC50 [14]: 217 nM

Reference: US20150218281A1 (Ablynx, published 2015)
